Experiments:
[1] = target: T1, C. imbricata cHPL (catalase-related hydroperoxide lyase domain) (Capnella imbricata, UniProt W8JJ08); experiment: RP-HPLC radiometric product analysis; assay type: biochemical; conditions: 20 μM [1-14C]-AA-derived 8R-HpETE; labelled compound
T1 construct: gene AOS-LOXb; N-terminal cHPL domain of the HPL-LOX fusion protein, without the LOX domain; cHPL-His4 in pET11a; E. coli BL21(DE3), Ni-NTA; heme protein; monomer 45 kDa plus oligomers 440-670 kDa

purified protein = substrate: CCCCC/C=C\C/C=C\C=C\[C@@H](C/C=C\CCCC(=O)O)OO; experiment: purified protein; assay type: biochemical, Capnella imbricata; conditions: 50 mM Tris pH 8.0, 100 mM NaCl, 1 mM CaCl2, 20 °C, 5–50 μM substrate

T1 sequence (W8JJ08 entry or part of it): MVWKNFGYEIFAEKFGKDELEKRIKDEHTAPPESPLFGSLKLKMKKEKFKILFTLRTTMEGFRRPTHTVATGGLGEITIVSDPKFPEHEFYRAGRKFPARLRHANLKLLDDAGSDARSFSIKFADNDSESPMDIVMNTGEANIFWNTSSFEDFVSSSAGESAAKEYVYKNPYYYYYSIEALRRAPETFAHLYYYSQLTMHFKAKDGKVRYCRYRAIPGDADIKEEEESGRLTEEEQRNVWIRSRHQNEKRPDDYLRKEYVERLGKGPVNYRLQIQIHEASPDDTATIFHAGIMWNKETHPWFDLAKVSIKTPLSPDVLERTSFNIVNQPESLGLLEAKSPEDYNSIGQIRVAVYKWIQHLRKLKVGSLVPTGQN

Row | Molecule | RP-HPLC radiometric product analysis [1] | Km (purified protein) [µM] | kcat (purified protein) [s⁻¹] | kcat/Km (purified protein) [M⁻¹ s⁻¹]
1 | CCCCC/C=C\C/C=C\C=C\[C@@H](C/C=C\CCCC(=O)O)OO [8R-HpETE] | Wt cHPL catalyzes the formation of C8-oxo acid and C12 aldehyde | – | – | –
2 | C. imbricata cHPL (catalase-related hydroperoxide lyase domain) (Capnella imbricata; S177L/Y176N) (protein, N-terminal cHPL domain of the HPL-LOX fusion protein, without the LOX domain; cHPL-His4 in pET11a; E. coli BL21(DE3), Ni-NTA; heme protein; monomer 45 kDa plus oligomers 440-670 kDa) MVWKNFGYEIFAEKFGKDELEKRIKDEHTAPPESPLFGSLKLKMKKEKFKILFTLRTTMEGFRRPTHTVATGGLGEITIVSDPKFPEHEFYRAGRKFPARLRHANLKLLDDAGSDARSFSIKFADNDSESPMDIVMNTGEANIFWNTSSFEDFVSSSAGESAAKEYVYKNPYYYYNLIEALRRAPETFAHLYYYSQLTMHFKAKDGKVRYCRYRAIPGDADIKEEEESGRLTEEEQRNVWIRSRHQNEKRPDDYLRKEYVERLGKGPVNYRLQIQIHEASPDDTATIFHAGIMWNKETHPWFDLAKVSIKTPLSPDVLERTSFNIVNQPESLGLLEAKSPEDYNSIGQIRVAVYKWIQHLRKLKVGSLVPTGQN | – | 3.9 ± 0.9 | 218 ± 13.8 | 5.6e+07
3 | C. imbricata cHPL (catalase-related hydroperoxide lyase domain) (Capnella imbricata; R56G) (protein, N-terminal cHPL domain of the HPL-LOX fusion protein, without the LOX domain; cHPL-His4 in pET11a; E. coli BL21(DE3), Ni-NTA; heme protein; monomer 45 kDa plus oligomers 440-670 kDa) MVWKNFGYEIFAEKFGKDELEKRIKDEHTAPPESPLFGSLKLKMKKEKFKILFTLGTTMEGFRRPTHTVATGGLGEITIVSDPKFPEHEFYRAGRKFPARLRHANLKLLDDAGSDARSFSIKFADNDSESPMDIVMNTGEANIFWNTSSFEDFVSSSAGESAAKEYVYKNPYYYYYSIEALRRAPETFAHLYYYSQLTMHFKAKDGKVRYCRYRAIPGDADIKEEEESGRLTEEEQRNVWIRSRHQNEKRPDDYLRKEYVERLGKGPVNYRLQIQIHEASPDDTATIFHAGIMWNKETHPWFDLAKVSIKTPLSPDVLERTSFNIVNQPESLGLLEAKSPEDYNSIGQIRVAVYKWIQHLRKLKVGSLVPTGQN | – | 19.0 ± 4.0 | 304 ± 22.8 | 1.6e+07
4 | C. imbricata cHPL (catalase-related hydroperoxide lyase domain) (Capnella imbricata; E60K/M59L) (protein, N-terminal cHPL domain of the HPL-LOX fusion protein, without the LOX domain; cHPL-His4 in pET11a; E. coli BL21(DE3), Ni-NTA; heme protein; monomer 45 kDa plus oligomers 440-670 kDa) MVWKNFGYEIFAEKFGKDELEKRIKDEHTAPPESPLFGSLKLKMKKEKFKILFTLRTTLKGFRRPTHTVATGGLGEITIVSDPKFPEHEFYRAGRKFPARLRHANLKLLDDAGSDARSFSIKFADNDSESPMDIVMNTGEANIFWNTSSFEDFVSSSAGESAAKEYVYKNPYYYYYSIEALRRAPETFAHLYYYSQLTMHFKAKDGKVRYCRYRAIPGDADIKEEEESGRLTEEEQRNVWIRSRHQNEKRPDDYLRKEYVERLGKGPVNYRLQIQIHEASPDDTATIFHAGIMWNKETHPWFDLAKVSIKTPLSPDVLERTSFNIVNQPESLGLLEAKSPEDYNSIGQIRVAVYKWIQHLRKLKVGSLVPTGQN | – | 7.3 ± 1.9 | 7.5 ± 0.6 | 1e+06
5 | C. imbricata cHPL (catalase-related hydroperoxide lyase domain) (Capnella imbricata; P65A) (protein, N-terminal cHPL domain of the HPL-LOX fusion protein, without the LOX domain; cHPL-His4 in pET11a; E. coli BL21(DE3), Ni-NTA; heme protein; monomer 45 kDa plus oligomers 440-670 kDa) MVWKNFGYEIFAEKFGKDELEKRIKDEHTAPPESPLFGSLKLKMKKEKFKILFTLRTTMEGFRRATHTVATGGLGEITIVSDPKFPEHEFYRAGRKFPARLRHANLKLLDDAGSDARSFSIKFADNDSESPMDIVMNTGEANIFWNTSSFEDFVSSSAGESAAKEYVYKNPYYYYYSIEALRRAPETFAHLYYYSQLTMHFKAKDGKVRYCRYRAIPGDADIKEEEESGRLTEEEQRNVWIRSRHQNEKRPDDYLRKEYVERLGKGPVNYRLQIQIHEASPDDTATIFHAGIMWNKETHPWFDLAKVSIKTPLSPDVLERTSFNIVNQPESLGLLEAKSPEDYNSIGQIRVAVYKWIQHLRKLKVGSLVPTGQN | – | 15.3 ± 2.5 | 40.3 ± 2.5 | 2.6e+06
6 | C. imbricata cHPL (catalase-related hydroperoxide lyase domain) (Capnella imbricata; I357V) (protein, N-terminal cHPL domain of the HPL-LOX fusion protein, without the LOX domain; cHPL-His4 in pET11a; E. coli BL21(DE3), Ni-NTA; heme protein; monomer 45 kDa plus oligomers 440-670 kDa) MVWKNFGYEIFAEKFGKDELEKRIKDEHTAPPESPLFGSLKLKMKKEKFKILFTLRTTMEGFRRPTHTVATGGLGEITIVSDPKFPEHEFYRAGRKFPARLRHANLKLLDDAGSDARSFSIKFADNDSESPMDIVMNTGEANIFWNTSSFEDFVSSSAGESAAKEYVYKNPYYYYYSIEALRRAPETFAHLYYYSQLTMHFKAKDGKVRYCRYRAIPGDADIKEEEESGRLTEEEQRNVWIRSRHQNEKRPDDYLRKEYVERLGKGPVNYRLQIQIHEASPDDTATIFHAGIMWNKETHPWFDLAKVSIKTPLSPDVLERTSFNIVNQPESLGLLEAKSPEDYNSIGQIRVAVYKWVQHLRKLKVGSLVPTGQN | – | 5.0 ± 1.0 | 63.9 ± 3.2 | 1.28e+07
7 | C. imbricata cHPL (catalase-related hydroperoxide lyase domain) (Capnella imbricata; F150L) (protein, N-terminal cHPL domain of the HPL-LOX fusion protein, without the LOX domain; cHPL-His4 in pET11a; E. coli BL21(DE3), Ni-NTA; heme protein; monomer 45 kDa plus oligomers 440-670 kDa) MVWKNFGYEIFAEKFGKDELEKRIKDEHTAPPESPLFGSLKLKMKKEKFKILFTLRTTMEGFRRPTHTVATGGLGEITIVSDPKFPEHEFYRAGRKFPARLRHANLKLLDDAGSDARSFSIKFADNDSESPMDIVMNTGEANIFWNTSSLEDFVSSSAGESAAKEYVYKNPYYYYYSIEALRRAPETFAHLYYYSQLTMHFKAKDGKVRYCRYRAIPGDADIKEEEESGRLTEEEQRNVWIRSRHQNEKRPDDYLRKEYVERLGKGPVNYRLQIQIHEASPDDTATIFHAGIMWNKETHPWFDLAKVSIKTPLSPDVLERTSFNIVNQPESLGLLEAKSPEDYNSIGQIRVAVYKWIQHLRKLKVGSLVPTGQN | – | 1.8 ± 0.4 | 49.6 ± 1.5 | 2.76e+07
8 | C. imbricata cAOS (cAOS-H4 domain) (Capnella imbricata) (protein, N-terminal cAOS domain of the AOS-LOX fusion protein, without the LOX domain; cAOS-H4 (His4 tag) in pET11a; E. coli BL21(DE3), Ni-NTA; heme protein; monomer) MTWKNFGFDIFAERFGKDKLEKRIKDERTPPPDSPVFGGLTLRMKIEKFKTLFTLGTTLKGFRRATHTVGTGGIGEVTVVDDPKFPEHEFFKAGRKLPVRLRHANLKYPDDAGADARSFSIKFSDNDSESPLDIVMNTGEANIFWHTSSLEDFVPVKEGDSAKEYVYKNPYYYYNLVEALRRAPNTFAHLYYYSQVTMHFKAKDGKERYCRYRAIPGDVDIKEEEESGRLTEEEQRNIWTFSRYETEKRPDDYLRKEYVERLKKGPVNYRLQIQIHDVSPNDTATIFHAGILWDKETHPWFDLAKVSITTPMSPDVLERTNFNIVNQPKSLGLLDAKSPEDYNSIGQIRVSVYNWVQHLRKLKLGSLIPAGQN | – | 46.6 ± 9.0 | 1840 ± 196 | 3.94e+07
9 | C. imbricata cAOS (cAOS-H4 domain) (Capnella imbricata; L150F) (protein, N-terminal cAOS domain of the AOS-LOX fusion protein, without the LOX domain; cAOS-H4 (His4 tag) in pET11a; E. coli BL21(DE3), Ni-NTA; heme protein; monomer) MTWKNFGFDIFAERFGKDKLEKRIKDERTPPPDSPVFGGLTLRMKIEKFKTLFTLGTTLKGFRRATHTVGTGGIGEVTVVDDPKFPEHEFFKAGRKLPVRLRHANLKYPDDAGADARSFSIKFSDNDSESPLDIVMNTGEANIFWHTSSFEDFVPVKEGDSAKEYVYKNPYYYYNLVEALRRAPNTFAHLYYYSQVTMHFKAKDGKERYCRYRAIPGDVDIKEEEESGRLTEEEQRNIWTFSRYETEKRPDDYLRKEYVERLKKGPVNYRLQIQIHDVSPNDTATIFHAGILWDKETHPWFDLAKVSITTPMSPDVLERTNFNIVNQPKSLGLLDAKSPEDYNSIGQIRVSVYNWVQHLRKLKLGSLIPAGQN | – | 6.7 ± 1.0 | 203 ± 8.1 | 3.03e+07
